Measurements reported in PMC9239148 (2022).

B1: Active recombinant TMPRSS2 (transmembrane serine protease 2) (enzyme)
chain: not shown
B2: Tissue plasminogen activator (enzyme)
chain: SYQVICRDEKTQMIYQQHQSWLRPVLRSNRVEYCWCNSGRAQCHSVPVKSCSEPRCFNGGTCQQALYFSDFVCQCPEGFAGKCCEIDTRATCYEDQGISYRGTWSTAESGAECTNWNSSALAQKPYSGRRPDAIRLGLGNHNYCRNPDRDSKPWCYVFKAGKYSSEFCSTPACSEGNSDCYFGNGSAYRGTHSLTESGASCLPWNSMILIGKVYTAQNPSAQALGLGKHNYCRNPDGDAKPWCHVLKNRRLTWEYCDVPSCSTCGLRQYSQPQFRIKGGLFADIASHPWQAAIFAKHRRSPGERFLCGGILISSCWILSAAHCFQERFPPHHLTVILGRTYRVVPGEEEQKFEVEKYIVHKEFDDDTYDNDIALLQLKSDSSRCAQESSVVRTVCLPPADLQLPDWTECELSGYGKHEALSPFYSERLKEAHVRLYPSSRCTSQHLLNRTVTDNMLCAGDTRSGGPQANLHDACQGDSGGPLVCLNDGRMTLVGIISWGLGCGQKDVPGVYTKVTNYLDWIRDNMRP

Experiments:
Experiment in all cases: SPR
[1] = target: T1, Recombinant SERPINE1 protein (plasminogen activator inhibitor 1) (human, UniProt P05121 24-402)
[2] = target: T2, Recombinant SERPINC1 protein (antithrombin III) (human, UniProt P01008 33-464)
[3] = target: T3, Recombinant SERPINA1 protein (alpha-1 antitrypsin) (human, UniProt P01009 25-418)
[4] = target: T1, Recombinant SERPINE1 protein …; remark: listed apart in the source
[5] = target: T2, Recombinant SERPINC1 protein …; remark: listed apart in the source
[6] = target: T3, Recombinant SERPINA1 protein (alpha-1 …); remark: listed apart in the source

T1 sequence (P05121 24-402): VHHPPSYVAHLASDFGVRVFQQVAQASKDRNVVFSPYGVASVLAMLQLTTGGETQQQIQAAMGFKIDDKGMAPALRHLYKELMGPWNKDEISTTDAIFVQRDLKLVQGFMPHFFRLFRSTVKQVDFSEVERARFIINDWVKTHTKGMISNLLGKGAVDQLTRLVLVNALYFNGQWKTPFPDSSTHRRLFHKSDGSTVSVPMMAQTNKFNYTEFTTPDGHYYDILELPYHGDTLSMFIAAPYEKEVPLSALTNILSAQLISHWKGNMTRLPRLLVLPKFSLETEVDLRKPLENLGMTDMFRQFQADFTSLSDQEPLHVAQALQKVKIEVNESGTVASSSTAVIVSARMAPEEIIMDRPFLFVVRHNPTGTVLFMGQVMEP
T2 sequence (P01008 33-464): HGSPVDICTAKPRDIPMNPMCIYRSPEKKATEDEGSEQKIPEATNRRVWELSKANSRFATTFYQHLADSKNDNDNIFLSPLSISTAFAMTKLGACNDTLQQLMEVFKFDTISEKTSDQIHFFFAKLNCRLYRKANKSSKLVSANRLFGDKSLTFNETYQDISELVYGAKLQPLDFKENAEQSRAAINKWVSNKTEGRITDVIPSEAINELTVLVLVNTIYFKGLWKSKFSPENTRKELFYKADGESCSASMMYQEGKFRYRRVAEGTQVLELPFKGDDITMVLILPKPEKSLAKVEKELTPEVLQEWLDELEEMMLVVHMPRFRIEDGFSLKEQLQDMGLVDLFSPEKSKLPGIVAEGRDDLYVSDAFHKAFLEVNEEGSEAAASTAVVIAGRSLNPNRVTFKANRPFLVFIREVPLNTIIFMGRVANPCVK
T3 sequence (P01009 25-418): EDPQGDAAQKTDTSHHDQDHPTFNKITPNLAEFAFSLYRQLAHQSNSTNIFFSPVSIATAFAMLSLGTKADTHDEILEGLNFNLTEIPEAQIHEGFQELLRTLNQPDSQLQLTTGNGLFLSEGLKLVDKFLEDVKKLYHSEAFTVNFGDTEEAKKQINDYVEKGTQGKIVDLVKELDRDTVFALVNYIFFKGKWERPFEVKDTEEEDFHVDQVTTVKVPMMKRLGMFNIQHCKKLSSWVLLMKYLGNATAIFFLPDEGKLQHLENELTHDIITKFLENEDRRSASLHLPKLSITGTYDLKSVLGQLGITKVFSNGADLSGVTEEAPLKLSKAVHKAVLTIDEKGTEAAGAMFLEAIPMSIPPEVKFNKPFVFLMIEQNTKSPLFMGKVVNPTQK

| Binder | Kd [1] | Kd [2] | Kd [3] | koff [4] | koff [5] | koff [6] |
| --- | --- | --- | --- | --- | --- | --- |
| B1 | 9.5 nM | 17.9 nM | 20.8 nM | 0.00253 s⁻¹ | 0.00324 s⁻¹ | 0.00377 s⁻¹ |
| B2 | 246 nM | – | – | 0.00787 s⁻¹ | – | – |
